# Assay results taken from US20150359864A1, “PHARMACEUTICAL COMPOSITION CONTAINING PEPTIDES” (ONCOTHERAPY SCIENCE, INC., priority 2012, published 2015).
# Tests used:
# [1] = Combination peptide injection preparation using arginine solution (Example 4); type: physicochemical; design: key to Dissolution on successive addition, Example 4-1 (Arg) (1 mg each) / Dissolution on successive addition, Example 4-2 (Arg) (2 mg each): ◯: Dissolved; X: White Turbid; conditions: for Dissolution on successive addition, Example 4-1 (Arg) (1 mg each): 1 mg each peptide added one after another to 1 ml arginine solvent
# Procedure: In order to prepare an injection preparation containing combination of the peptides shown in Table 1, the 10 types of peptides shown in Table 1 were added in an amount of 1 mg each to 1 ml of the injection solvent containing arginine as used in Example 2. The entire amount of one peptide was dissolved upon addition thereof to obtain a colorless and clear solution, and another peptide was then added thereto.
# Subsequently, preparation of another injection preparation containing combination of the peptides was attempted in the same manner as described above, except that the amount of each peptide added was changed to 2 mg. […] Thus, no other peptides were added thereafter.
# [2] = Preparation of injection preparations using sodium carbonate/arginine solution (Example 3); type: physicochemical; conditions: for Peptide concentration at which injection preparation could be prepared, Example 3 (Na2CO3/Arg): 41 mg sodium carbonate decahydrate and 40 mg L-arginine in 1 ml injection solvent; for pH of injection preparation, Example 3 (Na2CO3/Arg): injection solvent containing sodium carbonate and arginine
# Procedure: 41 mg of sodium carbonate decahydrate and 40 mg of L-arginine were dissolved in 1 ml of an injection solvent to obtain an injection solvent containing sodium carbonate and arginine.
# In the case of Peptide 3, it was confirmed that the injection preparation could be obtained with the addition of 15 mg of peptide at the maximum. All the obtained injection preparations had pH levels within adequate range for injection (Table 2).
# [3] = Preparation of single peptide injection preparations using injection solvent (Comparative Example 1); conditions: for Whether injection preparation could be prepared (in words): 2 mg to 20 mg peptide in 1 ml injection solvent; for Peptide concentration at which injection preparation could be prepared, Comparative Example 1 (injection solvent): injection solvent (water), room temperature
# Procedure: Pharmaceutical water defined by the Japanese Pharmacopoeia was used as an injection solvent.
# In order to prepare formulations containing one of the peptides shown in Table 1, each of the peptides shown in Table 1 were added to 1 ml of an injection solvent. The resultants were agitated at room temperature so as to dissolve the entire amounts of the peptides added, and thereby colorless and clear solutions of each peptide were obtained. Thereafter, the peptide solutions were sterilized via filtration (with the use of a 0.22-μm filter) to obtain injection preparations.
# The amounts of peptides added varied within the range of 2 mg to 20 mg, and injection preparations were prepared at each concentration. […] For these peptides, peptide concentrations that enable preparation of injection preparations were investigated.
# [4] = Combination peptide injection preparation using sodium carbonate/arginine solution (Example 6); type: physicochemical; design: key to Dissolution on successive addition, Example 6 (Na2CO3/Arg) (2 mg each) / Dissolution of further 2 mg of Peptide 2, Example 6 (Na2CO3/Arg): ◯: Dissolved; X: White Turbid; conditions: 2 mg each peptide added one after another to 1 ml sodium carbonate/arginine solvent
# Procedure: (§1) In order to prepare an injection preparation containing combination of the peptides shown in Table 1, the 10 types of peptides shown in Table 1 were added in an amount of 2 mg each to 1 ml of the injection solvent containing sodium carbonate and arginine as used in Example 3. The addition of each peptide was conducted in the same manner as in Example 4.
# [5] = Combination peptide injection preparation using sodium carbonate solution (Example 5); type: physicochemical; design: key to Dissolution on successive addition, Example 5 (Na2CO3) (2 mg each) / Dissolution of further 2 mg of Peptide 2, Example 5 (Na2CO3): ◯: Dissolved; X: White Turbid; conditions: 2 mg each peptide added one after another to 1 ml sodium carbonate solvent
# Procedure: as §1, with “carbonate” for “carbonate and arginine”, “1.” for “3.”
# [6] = Preparation of single peptide injection preparations using sodium carbonate solution (Example 1); type: physicochemical; conditions: for Whether injection preparation could be prepared (in words): 5 mg to 20 mg peptide in 1 ml injection solvent containing sodium carbonate; for Peptide concentration at which injection preparation could be prepared, Example 1 (Na2CO3): 41 mg sodium carbonate decahydrate in 1 ml injection solvent, class symbol; for pH of injection preparation, Example 1 (Na2CO3): injection solvent containing sodium carbonate
# Procedure: (§2) 41 mg of sodium carbonate decahydrate (Na2CO3.10H2O) was dissolved in 1 ml of an injection solvent to obtain an injection solvent containing sodium carbonate. In order to prepare formulations of the each peptide that was not dissolved in an injection solvent in Comparative Example 1, Peptides 1, 2, 4, 7, and 10 were separately added to 1 ml of injection solvents containing sodium carbonate.
# In the case of Peptide 1, it was confirmed that the injection preparation could be obtained with the addition of 9 mg of peptide at the maximum. All the obtained injection preparations had pH levels within adequate range for injection (Table 2).
# [7] = Preparation of single peptide injection preparations using arginine solution (Example 2); type: physicochemical; conditions: for Whether injection preparation could be prepared (in words): 5 mg to 20 mg peptide in 1 ml injection solvent containing arginine; for Peptide concentration at which injection preparation could be prepared, Example 2 (Arg): 40 mg L-arginine in 1 ml injection solvent, class symbol; for pH of injection preparation, Example 2 (Arg): injection solvent containing arginine
# Procedure: as §2, with “40” for “41”, “L-arginine” for “sodium carbonate decahydrate (Na2CO3.10H2O)”, “arginine.” for “sodium carbonate.”, “of” for “of the”
# In the case of Peptide 1, it was confirmed that the injection preparation could be obtained with the addition of 6 mg of peptide at the maximum. All the obtained injection preparations had pH levels within adequate range for injection (Table 2).
# [8] = Stability of lyophilized formulation, peptide content in the vial by HPLC (Example 7); type: physicochemical; conditions: 25 degrees C., humidity 60%, relative to comparative solution peak area = 100%
# Procedure: 107.7 g of L-arginine and 110.4 g of sodium carbonate hydrate were dissolved in 5,500 ml of an injection solvent. Peptide 1, Peptide 2, Peptide 3, and Peptide 4 were dissolved therein in amounts of 6.2 g, 7.5 g, 8.7 g, and 8.0 g, respectively. Thereafter, the total amount of the solution was adjusted to 7,000 ml with the addition of an injection solvent, and a combination peptide solution was obtained. […] Following lyophilization, the vial was fully stoppered and the aluminum cap seaming was conducted. Thus, a lyophilized formulation was produced.
# Further, the results shown above were subjected to regression analysis, so as to predict stability 24 months later.
sequence,measurement,setting,value
RYCNLEGPPI (T cell epitope) [Peptide 5],"Dissolution on successive addition, Example 4-1 (Arg) (1 mg each)",[1],◯
same,"Peptide concentration at which injection preparation could be prepared, Example 3 (Na2CO3/Arg)",[2]; class symbol,⊚ (20 mg/ml or more)
same,"pH of injection preparation, Example 3 (Na2CO3/Arg)",[2],10.20
same,Whether injection preparation could be prepared (in words),[3],possible to prepare the injection preparations regardless of the amounts of peptides added
same,"Peptide concentration at which injection preparation could be prepared, Comparative Example 1 (injection solvent)",[3]; class symbol,⊚ (20 mg/ml or more)
same,"Dissolution on successive addition, Example 6 (Na2CO3/Arg) (2 mg each)",[4],◯
same,"Dissolution on successive addition, Example 5 (Na2CO3) (2 mg each)",[5],◯
DYLNEWGSRF (T cell epitope) [Peptide 10],"Dissolution on successive addition, Example 4-1 (Arg) (1 mg each)",[1],◯
same,"Peptide concentration at which injection preparation could be prepared, Example 3 (Na2CO3/Arg)",[2]; class symbol,⊚ (20 mg/ml or more)
same,"pH of injection preparation, Example 3 (Na2CO3/Arg)",[2],10.14
same,Whether injection preparation could be prepared (in words),[3],not possible to prepare the injection preparations regardless of the amounts of peptides added
same,"Peptide concentration at which injection preparation could be prepared, Comparative Example 1 (injection solvent)",[3]; class symbol,X (0.08 mg/ml or less)
same,"Dissolution on successive addition, Example 6 (Na2CO3/Arg) (2 mg each)",[4],◯
same,"Dissolution on successive addition, Example 5 (Na2CO3) (2 mg each)",[5],◯
same,Whether injection preparation could be prepared (in words),[6],possible to prepare the injection preparations regardless of the amounts of peptides added
same,"Peptide concentration at which injection preparation could be prepared, Example 1 (Na2CO3)",[6],⊚ (20 mg/ml or more)
same,"pH of injection preparation, Example 1 (Na2CO3)",[6],9.35
same,Whether injection preparation could be prepared (in words),[7],possible to prepare the injection preparations regardless of the amounts of peptides added
same,"Peptide concentration at which injection preparation could be prepared, Example 2 (Arg)",[7],⊚ (20 mg/ml or more)
same,"pH of injection preparation, Example 2 (Arg)",[7],9.87
KVYLRVRPLL (T cell epitope) [Peptide 3],"Peptide content in the vial, 0 months",[8],103.7%
same,"Peptide content in the vial, 1 month",[8],103.4%
same,"Peptide content in the vial, 3 months",[8],102.7%
same,"Peptide content in the vial, 6 months",[8],100.1%
same,"Dissolution on successive addition, Example 4-1 (Arg) (1 mg each)",[1],◯
same,"Dissolution on successive addition (in words), Example 4","[1]; 2 mg each in 1 ml arginine solvent, added after Peptide 1 and Peptide 2",white turbidity
same,"Dissolution on successive addition, Example 4-2 (Arg) (2 mg each)",[1]; 2 mg each peptide added one after another to 1 ml arginine solvent,X
same,"Peptide concentration at which injection preparation could be prepared, Example 3 (Na2CO3/Arg)",[2]; numeric,15 mg/mL
same,Maximum amount of peptide added that gave an injection preparation,[2]; in 1 ml injection solvent containing sodium carbonate and arginine,15 mg
same,Whether injection preparation could be prepared (in words),[3],possible to prepare the injection preparations regardless of the amounts of peptides added
same,"Peptide concentration at which injection preparation could be prepared, Comparative Example 1 (injection solvent)",[3]; class symbol,⊚ (20 mg/ml or more)
same,"Dissolution on successive addition, Example 6 (Na2CO3/Arg) (2 mg each)",[4],◯
same,"Dissolution on successive addition, Example 5 (Na2CO3) (2 mg each)",[5],◯
VYGIRLEHF (T cell epitope) [Peptide 9],"Dissolution on successive addition, Example 4-1 (Arg) (1 mg each)",[1],◯
same,"Peptide concentration at which injection preparation could be prepared, Example 3 (Na2CO3/Arg)",[2]; class symbol,⊚ (20 mg/ml or more)
same,"pH of injection preparation, Example 3 (Na2CO3/Arg)",[2],9.84
same,Whether injection preparation could be prepared (in words),[3],possible to prepare the injection preparations regardless of the amounts of peptides added
same,"Peptide concentration at which injection preparation could be prepared, Comparative Example 1 (injection solvent)",[3]; class symbol,⊚ (20 mg/ml or more)
same,"Dissolution on successive addition, Example 6 (Na2CO3/Arg) (2 mg each)",[4],◯
same,"Dissolution on successive addition, Example 5 (Na2CO3) (2 mg each)",[5],◯
SYRNEIAYL (T cell epitope) [Peptide 7],"Dissolution on successive addition, Example 4-1 (Arg) (1 mg each)",[1],◯
same,"Peptide concentration at which injection preparation could be prepared, Example 3 (Na2CO3/Arg)",[2]; class symbol,⊚ (20 mg/ml or more)
same,"pH of injection preparation, Example 3 (Na2CO3/Arg)",[2],9.97
same,Whether injection preparation could be prepared (in words),[3],not possible to prepare the injection preparations regardless of the amounts of peptides added
same,"Peptide concentration at which injection preparation could be prepared, Comparative Example 1 (injection solvent)",[3]; numeric,0.5 mg/mL
same,"Dissolution on successive addition, Example 6 (Na2CO3/Arg) (2 mg each)",[4],◯
same,"Dissolution on successive addition, Example 5 (Na2CO3) (2 mg each)",[5],◯
same,Whether injection preparation could be prepared (in words),[6],possible to prepare the injection preparations regardless of the amounts of peptides added
same,"Peptide concentration at which injection preparation could be prepared, Example 1 (Na2CO3)",[6],⊚ (20 mg/ml or more)
same,"pH of injection preparation, Example 1 (Na2CO3)",[6],9.18
same,Whether injection preparation could be prepared (in words),[7],possible to prepare the injection preparations regardless of the amounts of peptides added
same,"Peptide concentration at which injection preparation could be prepared, Example 2 (Arg)",[7],⊚ (20 mg/ml or more)
same,"pH of injection preparation, Example 2 (Arg)",[7],9.68
EYCPGGNLP (EYCPGGNLF; T cell epitope) [Peptide 8],"Dissolution on successive addition, Example 4-1 (Arg) (1 mg each)",[1],◯
same,"Peptide concentration at which injection preparation could be prepared, Example 3 (Na2CO3/Arg)",[2]; class symbol,⊚ (20 mg/ml or more)
same,"pH of injection preparation, Example 3 (Na2CO3/Arg)",[2],9.80
same,Whether injection preparation could be prepared (in words),[3],possible to prepare the injection preparations regardless of the amounts of peptides added
same,"Peptide concentration at which injection preparation could be prepared, Comparative Example 1 (injection solvent)",[3]; class symbol,⊚ (20 mg/ml or more)
same,"Dissolution on successive addition, Example 6 (Na2CO3/Arg) (2 mg each)",[4],◯
same,"Dissolution on successive addition, Example 5 (Na2CO3) (2 mg each)",[5],◯
RFVPDGNRI (T cell epitope) [Peptide 6],"Dissolution on successive addition, Example 4-1 (Arg) (1 mg each)",[1],◯
same,"Peptide concentration at which injection preparation could be prepared, Example 3 (Na2CO3/Arg)",[2]; class symbol,⊚ (20 mg/ml or more)
same,"pH of injection preparation, Example 3 (Na2CO3/Arg)",[2],10.55
same,Whether injection preparation could be prepared (in words),[3],possible to prepare the injection preparations regardless of the amounts of peptides added
same,"Peptide concentration at which injection preparation could be prepared, Comparative Example 1 (injection solvent)",[3]; class symbol,⊚ (20 mg/ml or more)
same,"Dissolution on successive addition, Example 6 (Na2CO3/Arg) (2 mg each)",[4],◯
same,"Dissolution on successive addition, Example 5 (Na2CO3) (2 mg each)",[5],◯
